Test results reported in the supplement of paper PMC9112550, “Optimization of the antimicrobial peptide Bac7 by deep mutational scanning” (BMC Biology, 2022).

Test system: Escherichia coli TOP10
Assay: shrunken log2 fold change of peptide-encoding DNA abundance (4.5 h post-induction vs induction); higher = less antimicrobial activity (less host growth inhibition)
Conditions: time post-induction: 4.5 h; library: site-saturation at positions 5, 18, 19, 20
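Also: peptides expressed intracellularly from a pBAD plasmid library in pooled LB shake-flask culture, induced with 0.3% L-arabinose, DNA abundance read by NGS, three biological replicates, DESeq2 with apeglm shrinkage.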

Row | Sequence | shrunken log2 fold change
1 | RRIRHRPPRLPRPRPRPVGIPRP | -0.294
2 | RRIRWRPPRLPRPRPRPQLFPRP | 0.0645
3 | RRIRSRPPRLPRPRPRPSTEPRP | -0.0608
4 | RRIRWRPPRLPRPRPRPSFCPRP | -0.136
5 | RRIRHRPPRLPRPRPRPPSFPRP | -0.234
6 | RRIRCRPPRLPRPRPRPHHDPRP | -0.58
7 | RRIRWRPPRLPRPRPRPGTEPRP | 0.403
8 | RRIRIRPPRLPRPRPRPCTVPRP | -0.337
9 | RRIRWRPPRLPRPRPRPTIWPRP | 0.0311
10 | RRIRIRPPRLPRPRPRPSFMPRP | -0.871
11 | RRIRFRPPRLPRPRPRPPLSPRP | 0.133
12 | RRIRYRPPRLPRPRPRPVYWPRP | -0.763
13 | RRIRRRPPRLPRPRPRPETTPRP | 1.09
14 | RRIRARPPRLPRPRPRPGPIPRP | 0.341
15 | RRIRNRPPRLPRPRPRPTFDPRP | 0.0109
16 | RRIRCRPPRLPRPRPRPKKSPRP | -0.0331
17 | RRIRRRPPRLPRPRPRPAFEPRP | 0.54
18 | RRIRARPPRLPRPRPRPTLLPRP | 0.286
19 | RRIRRRPPRLPRPRPRPYEAPRP | 0.125
20 | RRIRQRPPRLPRPRPRPWNIPRP | -0.0185
21 | RRIRYRPPRLPRPRPRPCGYPRP | -0.467
22 | RRIRARPPRLPRPRPRPTCTPRP | 0.764
23 | RRIRNRPPRLPRPRPRPNKHPRP | -0.528
24 | RRIRIRPPRLPRPRPRPAVGPRP | 0.455
25 | RRIRCRPPRLPRPRPRPAIKPRP | -0.738

Row | Sequence | shrunken log2 fold change
26 | RRIRGRPPRLPRPRPRPAYHPRP | -0.141
27 | RRIRDRPPRLPRPRPRPECTPRP | 1.05
28 | RRIRHRPPRLPRPRPRPANRPRP | -0.129
29 | RRIRIRPPRLPRPRPRPTMTPRP | -0.0629
30 | RRIRTRPPRLPRPRPRPDSTPRP | -0.232
31 | RRIRQRPPRLPRPRPRPPIIPRP | -0.0647
32 | RRIRIRPPRLPRPRPRPQYGPRP | 0.0914
33 | RRIRWRPPRLPRPRPRPIKKPRP | -0.0218
34 | RRIRSRPPRLPRPRPRPDSQPRP | -0.267
35 | RRIRCRPPRLPRPRPRPKQEPRP | 0.0247
36 | RRIRVRPPRLPRPRPRPPTKPRP | 0.417
37 | RRIRYRPPRLPRPRPRPSCSPRP | -0.972
38 | RRIRSRPPRLPRPRPRPTGPPRP | -0.0769
39 | RRIRNRPPRLPRPRPRPMANPRP | -9.3e-05
40 | RRIRLRPPRLPRPRPRPRHDPRP | 0.0303
41 | RRIRERPPRLPRPRPRPEVMPRP | 0.378
42 | RRIRGRPPRLPRPRPRPRVHPRP | 0.666
43 | RRIRFRPPRLPRPRPRPIHMPRP | -0.491
44 | RRIRRRPPRLPRPRPRPCPLPRP | 0.262
45 | RRIRPRPPRLPRPRPRPWGGPRP | 0.702
46 | RRIRARPPRLPRPRPRPCFYPRP | -0.218
47 | RRIRERPPRLPRPRPRPTSQPRP | -0.235
48 | RRIRERPPRLPRPRPRPPGLPRP | 0.433
49 | RRIRMRPPRLPRPRPRPAMMPRP | 0.59
50 | RRIRYRPPRLPRPRPRPDKKPRP | -0.0333
